# Legend:
# [1] = biological target: mDR5ectm-td1, extracellular and transmembrane domains of murine DR5 fused to tetanus toxin fragment (mouse); experiment: flow cytometry on SKOV3 cells transfected with murine DR5 (mDR5ectm-td1)
# [2] = biological target: full length wild type human DR5 (human) (UniProt O14763); experiment: cell-based or functional assay
# UniProt O14763, sequence (O14763 other isoform, or with tags, fused parts or gaps limits assumed): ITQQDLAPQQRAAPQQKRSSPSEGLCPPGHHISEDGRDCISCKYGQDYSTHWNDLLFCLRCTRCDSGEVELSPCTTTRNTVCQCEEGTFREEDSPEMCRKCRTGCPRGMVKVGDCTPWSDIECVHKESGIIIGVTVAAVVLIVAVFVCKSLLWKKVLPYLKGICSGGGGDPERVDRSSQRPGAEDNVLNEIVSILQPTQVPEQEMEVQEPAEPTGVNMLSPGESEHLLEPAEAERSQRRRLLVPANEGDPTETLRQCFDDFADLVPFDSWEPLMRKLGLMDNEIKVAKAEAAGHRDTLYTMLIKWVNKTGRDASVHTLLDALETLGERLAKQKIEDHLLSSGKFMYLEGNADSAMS
growth inhibition of SUM159 cells (MTT) at 1 µg/mL antibody [2],growth inhibition of SUM159 cells (MTT) at 2 µg/mL antibody [2],growth inhibition of SUM159 cells (MTT) at 4 µg/mL antibody [2],Substance,percent of cells stained [1]
–,–,–,"MD5-1, monoclonal antibody to mouse DR5",100%
36%,55%,65%,"human DR5 agonist monoclonal antibody mAb631 (clone 71903, MAB631; R&D Systems)",–

# From patent US20120189572A1
